Earlier results on ten molecules are cited in article PMC7395068, “The evolution of strategies to minimise the risk of human drug-induced liver injury (DILI) in drug discovery and development” (Archives of Toxicology, 2020).

B1: interferon gamma-1b (protein, UniProt P01579 24-161, looked up)
Interferon gamma: QDPYVKEAENLKKYFNAGHSDVADNGTLFLGILKNWKEESDRKIMQSQIVSFYFKLFKNFKDDQSIQKSVETIKEDMNVKFFNSNKKKRDDFEKLTNYSVTDLNVQRKAIHELIQVMAELSPAAKTGKRKRSQMLFRG
B2: pegaspargase (protein, UniProt P00805 23-348, looked up)
L-asparaginase 2: LPNITILATGGTIAGGGDSATKSNYTVGKVGVENLVNAVPQLKDIANVKGEQVVNIGSQDMNDNVWLTLAKKINTDCDKTDGFVITHGTDTMEETAYFLDLTVKCDKPVVMVGAMRPSTSMSADGPFNLYNAVVTAADKASANRGVLVVMNDTVLDGRDVTKTNTTDVATFKSVNYGPLGYIHNGKIDYQRTPARKHTSDTPFDVSKLNELPKVGIVYNYANASDLPAKALVDAGYDGIVSAGVGNGNLYKSVFDTLATAAKTGTAVVRSSRVPTGATTQDAEVDDAKYGFVASGTLNPQKARVLLQLALTQTKDPQQIQQIFNQY
modifications: PEG conjugate
B3: imiglucerase (protein, UniProt P04062 40-536, looked up, variant R495H)
Lysosomal acid …: ARPCIPKSFGYSSVVCVCNATYCDSFDPPTFPALGTFSRYESTRSGRRMELSMGPIQANHTGTGLLLTLQPEQKFQKVKGFGGAMTDAAALNILALSPPAQNLLLKSYFSEEGIGYNIIRVPMASCDFSIRTYTYADTPDDFQLHNFSLPEEDTKLKIPLIHRALQLAQRPVSLLASPWTSPTWLKTNGAVNGKGSLKGQPGDIYHQTWARYFVKFLDAYAEHKLQFWAVTAENEPSAGLLSGYPFQCLGFTPEHQRDFIARDLGPTLANSTHHNVRLLMLDDQRLLLPHWAKVVLTDPEAAKYVHGIAVHWYLDFLAPAKATLGETHRLFPNTMLFASEACVGSKFWEQSVRLGSWDRGMQYSHSIITNLLYHVVGWTDWNLALNPEGGPNWVRNFVDSPIIVDITKDTFYKQPMFYHLGHFSKFIPEGSQRVGLVASQKNDLDAVALMHPDGSAVVVVLNRSSKDVPLTIKDPAVGFLETISPGYSIHTYLWHRQ
B4: pegvisomant (protein, UniProt P01241 27-217, looked up, variant H18D H21N Q22N F25S K41I Y42H L45W Q46W G120K R167N D171S E174S I179T)
Somatotropin: FPTIPLSRLFDNAMLRADRLNNLASDTYQEFEEAYIPKEQIHSFWWNPQTSLCFSESIPTPSNREETQQKSNLELLRISLLLIQSWLEPVQFLRSVFANSLVYGASDSNVYDLLKDLEEKIQTLMGRLEDGSPRTGQIFKQTYSKFDTNSHNDDALLKNYGLLYCFNKDMSKVSTFLRTVQCRSVEGSCGF
modifications: PEGylated
B5: pegfilgrastim (protein, UniProt P09919 31-207, looked up)
Granulocyte …: TPLGPASSLPQSFLLKCLEQVRKIQGDGAALQEKLVSECATYKLCHPEELVLLGHSLGIPWAPLSSCPSQALQLAGCLSQLHSGLFLYQGLLQALEGISPELGPTLDTLQLDVADFATTIWQQMEELGMAPALQPTQGAMPAFASAFQRRAGGVLVASHLQSFLEVSYRVLRHLAQP
modifications: N-terminal Met; PEG
B6: rasburicase (protein, UniProt Q00511 2-302, looked up)
Uricase: SAVKAARYGKDNVRVYKVHKDEKTGVQTVYEMTVCVLLEGEIETSYTKADNSVIVATDSIKNTIYITAKQNPVTPPELFGSILGTHFIEKYNHIHAAHVNIVCHRWTRMDIDGKPHPHSFIRDSEEKRNVQVDVVEGKGIDIKSSLSGLTVLKSTNSQFWGFLRDEYTTLKETWDRILSTDVDATWQWKNFSGLQEVRSHVPKFDATWATAREVTLKTFAEDNSASVQATMYKMAEQILARQQLIETVEYSLPNKHYFEIDLSWHKGLQNTGKNAEVFAPQSDPNGLIKCTVGRSSLKSKL
B7: pegademase bovine (protein, UniProt P56658 2-363, looked up)
Adenosine deaminase: AQTPAFNKPKVELHVHLDGAIKPETILYYGRKRGIALPADTPEELQNIIGMDKPLSLPEFLAKFDYYMPAIAGCREAVKRIAYEFVEMKAKDGVVYVEVRYSPHLLANSKVEPIPWNQAEGDLTPDEVVSLVNQGLQEGERDFGVKVRSILCCMRHQPSWSSEVVELCKKYREQTVVAIDLAGDETIEGSSLFPGHVKAYAEAVKSGVHRTVHAGEVGSANVVKEAVDTLKTERLGHGYHTLEDATLYNRLRQENMHFEVCPWSSYLTGAWKPDTEHPVVRFKNDQVNYSLNTDDPLIFKSTLDTDYQMTKNEMGFTEEEFKRLNINAAKSSFLPEDEKKELLDLLYKAYGMPSPASAEQCL
modifications: PEG conjugate
B8: idursulfase (protein, UniProt P22304 34-455; P22304 456-550, looked up)
Iduronate 2-sulfatase 42 kDa …: TDALNVLLIIVDDLRPSLGCYGDKLVRSPNIDQLASHSLLFQNAFAQQAVCAPSRVSFLTGRRPDTTRLYDFNSYWRVHAGNFSTIPQYFKENGYVTMSVGKVFHPGISSNHTDDSPYSWSFPPYHPSSEKYENTKTCRGPDGELHANLLCPVDVLDVPEGTLPDKQSTEQAIQLLEKMKTSASPFFLAVGYHKPHIPFRYPKEFQKLYPLENITLAPDPEVPDGLPPVAYNPWMDIRQREDVQALNISVPYGPIPVDFQRKIRQSYFASVSYLDTQVGRLLSALDDLQLANSTIIAFTSDHGWALGEHGEWAKYSNFDVATHVPLIFYVPGRTASLPEAGEKLFPYLDPFDSASQLMEPGRQSMDLVELVSLFPTLAGLAGLQVPPRCPVPSFHVELCREGKNLLKHFRFRDLEEDPYLPG
Iduronate 2-sulfatase 14 kDa …: NPRELIAYSQYPRPSDIPQWNSDKPSLKDIKIMGYSIRTIDYRYTVWVGFNPDEFLANFSDIHAGELYFVDSDPLQDHNMYNDSQGGDLFQLLMP
B9: tenecteplase (protein, UniProt P00750 36-562, looked up, variant T103N N117Q K296A H297A R298A R299A)
Tissue-type plasminogen …: SYQVICRDEKTQMIYQQHQSWLRPVLRSNRVEYCWCNSGRAQCHSVPVKSCSEPRCFNGGTCQQALYFSDFVCQCPEGFAGKCCEIDTRATCYEDQGISYRGNWSTAESGAECTNWQSSALAQKPYSGRRPDAIRLGLGNHNYCRNPDRDSKPWCYVFKAGKYSSEFCSTPACSEGNSDCYFGNGSAYRGTHSLTESGASCLPWNSMILIGKVYTAQNPSAQALGLGKHNYCRNPDGDAKPWCHVLKNRRLTWEYCDVPSCSTCGLRQYSQPQFRIKGGLFADIASHPWQAAIFAAAAASPGERFLCGGILISSCWILSAAHCFQERFPPHHLTVILGRTYRVVPGEEEQKFEVEKYIVHKEFDDDTYDNDIALLQLKSDSSRCAQESSVVRTVCLPPADLQLPDWTECELSGYGKHEALSPFYSERLKEAHVRLYPSSRCTSQHLLNRTVTDNMLCAGDTRSGGPQANLHDACQGDSGGPLVCLNDGRMTLVGIISWGLGCGQKDVPGVYTKVTNYLDWIRDNMRP
B10: laronidase (protein, UniProt P35475 28-653, looked up)
Alpha-L-iduronidase: APHLVHVDAARALWPLRRFWRSTGFCPPLPHSQADQYVLSWDQQLNLAYVGAVPHRGIKQVRTHWLLELVTTRGSTGRGLSYNFTHLDGYLDLLRENQLLPGFELMGSASGHFTDFEDKQQVFEWKDLVSSLARRYIGRYGLAHVSKWNFETWNEPDHHDFDNVSMTMQGFLNYYDACSEGLRAASPALRLGGPGDSFHTPPRSPLSWGLLRHCHDGTNFFTGEAGVRLDYISLHRKGARSSISILEQEKVVAQQIRQLFPKFADTPIYNDEADPLVGWSLPQPWRADVTYAAMVVKVIAQHQNLLLANTTSAFPYALLSNDNAFLSYHPHPFAQRTLTARFQVNNTRPPHVQLLRKPVLTAMGLLALLDEEQLWAEVSQAGTVLDSNHTVGVLASAHRPQGPADAWRAAVLIYASDDTRAHPNRSVAVTLRLRGVPPGPGLVYVTRYLDNGLCSPDGEWRRLGRPVFPTAEQFRRMRAAEDPVAAAPRPLPAGGRLTLRPALRLPSLLLVHVCARPEKPPGQVTRLRALPLTQGQLVLVWSDEHVGSKCLWTYEIQFSQDGKAYTPVSRKPSTFNLFVFSPDTGAVSGSYRVRALDYWARPGPFSDPVPYLEVPVPRGPPSPGNP

The conditions of this data set: in vivo.
For B1, the “DILI +VE (5-8), DILI -VE (-4)” value is listed as “-VE” and the DILI severity category result was “Ambiguous DILI-concern”.
In the case of B2, the “DILI +VE (5-8), DILI -VE (-4)” value was “+VE” and the DILI severity category entry is reported as “vLess-DILI-Concern”.
Consider B3, for which the “DILI +VE (5-8), DILI -VE (-4)” value is recorded as “-VE” and the DILI severity category entry is on record as “vNo-DILI-Concern”.
For B4, the “DILI +VE (5-8), DILI -VE (-4)” value is listed as “-VE” and the DILI severity category result was “Ambiguous DILI-concern”.
For the molecule B5, the “DILI +VE (5-8), DILI -VE (-4)” value is given as “-VE” and the DILI severity category entry was “vNo-DILI-Concern”.
As to B6, the “DILI +VE (5-8), DILI -VE (-4)” value is given as “-VE” and the DILI severity category entry is “vNo-DILI-Concern”.
Take B7: the “DILI +VE (5-8), DILI -VE (-4)” value is “-VE” and the DILI severity category result was “vNo-DILI-Concern”.
Consider B8, for which the “DILI +VE (5-8), DILI -VE (-4)” value was “-VE” and the DILI severity category result is listed as “vNo-DILI-Concern”.
For B9, the “DILI +VE (5-8), DILI -VE (-4)” value is reported as “-VE” and the DILI severity category entry is “vNo-DILI-Concern”.
For the molecule B10, the “DILI +VE (5-8), DILI -VE (-4)” value was “-VE” and the DILI severity category entry is on record as “Ambiguous DILI-concern”.
